Laboratory results published in patent US5871732.

Experiments:
[1] = target: recombinant soluble CD4 (human CD4 AA1-AA375) (human) (UniProt P01730); test: RIA, immobilised antibody; 125I-rsCD4 preincubated with the soluble competitor OKT4
[2] = target: recombinant soluble CD4 (human CD4 AA1-AA375) (human) (UniProt P01730); test: RIA, immobilised antibody; 125I-rsCD4 preincubated with the soluble competitor Leu3A
[3] = target: recombinant soluble CD4 (human CD4 AA1-AA375) (human) (UniProt P01730); test: RIA, immobilised antibody; 125I-rsCD4 preincubated with the soluble competitor OKT4A
[4] = target: CD4-V1V2 polypeptide (AA1-AA180 of human CD4) (human) (UniProt P01730); test: RIA, antibody captured on goat anti-mouse IgG; CD4-V1V2 (5 µg/ml) competing with 125I-rsCD4
[5] = target: CD4-V1 polypeptide (AA1-AA113 and/or AA1-AA111 of human CD4) (human) (UniProt P01730); test: RIA, antibody captured on goat anti-mouse IgG; CD4-V1 (5 µg/ml) competing with 125I-rsCD4
[6] = target: recombinant soluble CD4 (human CD4 AA1-AA375) (human) (UniProt P01730); test: RIA, immobilised antibody; 125I-rsCD4 preincubated with the competitor HIV r-gp120 (2.5 µg/ml)
[7] = target: human CD4 displayed on the surface of CD4+ cells (human) (UniProt P01730)
[8] = target: recombinant soluble CD4 (human CD4 AA1-AA375) (human) (UniProt P01730); test: RIA, 125I-rsCD4 preincubated with the soluble antibody; competitor: immobilised 5A8
[9] = target: mouse/human substitution mutant of rsCD4 at AA121-AA124 (V2) (human) (UniProt P01730); test: mutant rsCD4 (1 µg/ml) as competitor of OKT4 binding to CD4+ cells
[10] = target: mouse/human substitution mutant of rsCD4 at AA240-AA252 (V3) (human) (UniProt P01730); test: as above
[11] = target: mouse/human substitution mutant of rsCD4 at AA60 (V1) (human) (UniProt P01730); test: as above
[12] = target: mouse/human substitution mutant of rsCD4 at AA127-AA134 (V2) (human) (UniProt P01730); test: as above
[13] = target: mouse/human substitution mutant of rsCD4 at AA220-AA226 (V3) (human) (UniProt P01730); test: as above
[14] = target: mouse/human substitution mutant of rsCD4 at AA165 (V2) (human) (UniProt P01730); test: as above

Substance	% Inhibition rsCD4 Binding By OKT4 [1] [%]	% Inhibition rsCD4 Binding By Leu 3A [2] [%]	% Inhibition rsCD4 Binding By OKT4A [3] [%]	CD4-V1V2 % Inhibition of rsCD4 Binding [4] [%]	CD4-V1 % Inhibition of rsCD4 Binding [5] [%]	HIV r-gp120 % Inhibition rsCD4 Binding [6] [%]	concentration inhibiting syncytia formation 50% [7] [µg/mL]	% Inhibition rsCD4 Binding [8] [%]	% blocking of OKT4 binding to CD4+ cells [9] [%]	% blocking of OKT4 binding to CD4+ cells [10] [%]	% blocking of OKT4 binding to CD4+ cells [11] [%]	% blocking of OKT4 binding to CD4+ cells [12] [%]	% blocking of OKT4 binding to CD4+ cells [13] [%]	% blocking of OKT4 binding to CD4+ cells [14] [%]
OKT4A, CD4 V1-specific anti-CD4 mouse monoclonal antibody (Ortho Diagnostic Systems)	-26.8	62	68.5	95.5	87.3	66.1	–	–	–	–	–	–	–	–
Leu3A, CD4 V1-specific monoclonal antibody (Becton Dickinson)	-10.3	85.8	73.9	94	88.2	85.1	0.02	0	–	–	–	–	–	–
OKT4, CD4 V3V4-specific anti-CD4 mouse monoclonal antibody (Ortho Diagnostic Systems)	91.3	8.4	3.6	14.4	-5.5	-8.2	–	4	60	60	60	60	60	60
